# Measurements as given in US20210060072A1 (CRISPR THERAPEUTICS, published 2021).
# T1: CD70 on CD70-expressing cancer cell lines (A498, ACHN, SK-OV-3, Hs-766T, NCI-H1975, Calu-1, DU 145, MM.1S, … (human, UniProt P32970 1-193))
# T1 sequence (looked up): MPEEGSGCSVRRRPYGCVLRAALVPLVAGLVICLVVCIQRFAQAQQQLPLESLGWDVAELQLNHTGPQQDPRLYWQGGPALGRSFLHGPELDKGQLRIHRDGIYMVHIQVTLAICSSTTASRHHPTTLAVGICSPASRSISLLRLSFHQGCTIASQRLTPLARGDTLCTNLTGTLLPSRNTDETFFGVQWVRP
# Target: T1, CD70 on CD70-expressing cancer cell …
# Experiment: cell-based or functional assay
binder,measurement,value
"anti-CD70 CAR (CD70B scFv with 41BB; CD8 transmembrane domain, 41BB co-stimulatory domain, CD3z signaling domain) (other) QVQLVQSGAEVKKPGASVKVSCKASGYTFTNYGMNWVRQAPGQGLKWMGWINTYTGEPTYADAFKGRVTMTRDTSISTAYMELSRLRSDDTAVYYCARDYGDYGMDYWGQGTTVTVSSGGGGSGGGGSGGGGSGDIVMTQSPDSLAVSLGERATINCRASKSVSTSGYSFMHWYQQKPGQPPKLLIYLASNLESGVPDRFSGSGSGTDFTLTISSLQAEDVAVYYCQHSREVPWTFGQGTKVEIKSAAAFVPVFLPAKPTTTPAPRPPTPAPTIASQPLSLRPEACRPAAGGAVHTRGLDFACDIYIWAPLAGTCGVLLLSLVITLYCNHRNRKRGRKKLLYIFKQPFMRPVQTTQEEDGCSCRFPEEEEGGCELRVKFSRSADAPAYQQGQNQLYNELNLGRREEYDVLDKRRGRDPEMGGKPRRKNPQEGLYNELQKDKMAEAYSEIGMKGERRRGKGHDGLYQGLSTATKDTYDALHMQALPPR","cell killing, 24 hours of co-culture, A498, ACHN, SK-OV-3 and Hs-766T cells, 1:1 effector:target cell ratio (3xKO and 4xKO CD70 CAR+ T cells)",> 50%
same,"cell killing, 24 hours of co-culture, A498, ACHN, SK-OV-3 and Hs-766T cells, 4:1 effector:target cell ratio (3xKO and 4xKO CD70 CAR+ T cells)",> 60%
same,"cell killing, 24 hours of co-culture, NCI-H1975, Calu-1 and DU 145 cells, 4:1 effector:target cell ratio",> 30%
same,"cell killing, 96 hours of co-culture, SKOV-3, Hs-766T and NIC-H1975 cells, 1:1 effector:target cell ratio",> 80%
